Experimental data published in patent publication US20140243255A1.

Molecular target: Mtb ClpP1P2 protease complex (one heptameric ClpP1 ring and one heptameric ClpP2 ring) (Mycobacterium tuberculosis) (UniProt P0A527)

Row | Substance | Kd [µM]
1 | Z-Leu-Leu (peptide) | 2200
2 | Z-Leu-leucinal (peptide) | 240
